How the values were obtained:
hTROP-2 = biological target: T1, hTROP-2 (Homo sapiens, UniProt P09758); assay: Antibody protein level binding assay (ELISA); conditions: absorbance at 450 nm
T1 sequence (P09758 27-274): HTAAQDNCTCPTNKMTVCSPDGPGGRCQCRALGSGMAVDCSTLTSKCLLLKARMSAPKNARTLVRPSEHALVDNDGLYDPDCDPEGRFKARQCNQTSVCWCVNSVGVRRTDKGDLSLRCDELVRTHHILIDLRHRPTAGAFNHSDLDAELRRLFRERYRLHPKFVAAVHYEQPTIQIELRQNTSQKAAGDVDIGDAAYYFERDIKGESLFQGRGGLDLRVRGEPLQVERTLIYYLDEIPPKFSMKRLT
Method: (§1) hTROP-2 protein was diluted to 1 μg/mL with PBS buffer at pH 7.4 (Shanghai BasalMedia Technologies Co., LTD., B320), added into a 96-well microplate at 100 μL per well, and incubated at 4° C. overnight. After the liquid was discarded, 300 μL of 5% skim milk (BD, 232100) diluted with PBS was added into each well for blocking and incubated at 37° C. for 2 h. After the blocking was completed, the blocking solution was discarded; after the plate was washed 3 times with PBST buffer (pH 7.4, PBS containing 0.1% tween-20), 100 μL of a gradient diluted antibody solution was added into each well and incubated at 37° C. for 1 h. After the incubation was completed, the plate was washed 3 times with PBST buffer, and 100 μL of 1:8000 diluted mouse anti-human IgG (H+L) (Jackson ImmunoResearch, 209-035-088) was added into each well and incubated at 37° C. for 1 h. After the plate was washed 3 times with PBST buffer, 100 μL of TMB chromogenic substrate (KPL, 5120-0077) was added into each well and incubated at room temperature for 10-15 min, and the reaction was terminated by adding 50 μL of 1 M H2504 into each well. The plate was detected for the absorbance at 450 nm using a microplate reader, the binding curves of antibodies to antigen were fitted with software, and the EC50 value was calculated.

TROP-2 = assay: Antibody endocytosis assay (DT3C cell killing); type: cell-based; conditions: antibody-DT3C mixture, three days, CTG
[1] = biological target: T2, TROP-2 expressed on tumor cell lines (FaDu, HCC827, Colo205, DMS53, SK-OV-3) (human, UniProt P09758 27-323); assay: cell-based or functional assay
T2 sequence: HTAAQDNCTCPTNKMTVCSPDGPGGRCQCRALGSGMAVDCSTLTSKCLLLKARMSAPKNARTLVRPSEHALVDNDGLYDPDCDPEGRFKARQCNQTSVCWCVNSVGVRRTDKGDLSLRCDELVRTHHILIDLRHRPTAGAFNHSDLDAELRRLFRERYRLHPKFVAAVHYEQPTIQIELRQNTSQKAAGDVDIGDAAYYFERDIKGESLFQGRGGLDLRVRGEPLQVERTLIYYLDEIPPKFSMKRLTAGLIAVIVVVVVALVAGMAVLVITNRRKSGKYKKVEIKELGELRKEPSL

[2] = biological target: T3, human TROP-2 on stably transfected CHO-K1 cells (CHO-K1/hTROP-2) (human, UniProt P09758 27-323); assay: flow cytometry on stably transfected TROP-2-expressing CHOK1 cells
T3 construct: Full-length TROP-2 (Genbank NP_002344.2) expressed from a lentiviral vector; also called stably transfected TROP-2-expressing CHOK1 cells; hTROP-2 protein-expressing cells
T3 sequence: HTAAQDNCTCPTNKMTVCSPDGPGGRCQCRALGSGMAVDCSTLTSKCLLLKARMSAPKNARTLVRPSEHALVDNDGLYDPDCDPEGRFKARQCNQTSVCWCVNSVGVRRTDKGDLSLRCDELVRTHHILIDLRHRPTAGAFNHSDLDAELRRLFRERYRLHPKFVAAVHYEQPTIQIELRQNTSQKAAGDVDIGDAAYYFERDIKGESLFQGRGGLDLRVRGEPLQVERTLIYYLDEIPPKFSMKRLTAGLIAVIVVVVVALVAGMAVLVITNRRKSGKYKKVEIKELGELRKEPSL
Method: (§2) After centrifugation and removal of the supernatant, the test antibodies that was diluted with FACS buffer to different concentrations were added at 50 μL/well. The plate was incubated in the dark in a 4° C. refrigerator for 1 h. The plate was washed 3 times with FACS buffer by centrifugation at 300 g, and Alexa Fluor 488 goat anti-human IgG (H+L) (invitrogen, A-11013) at working concentration was added. The plate was incubated in the dark in a 4° C. refrigerator for 40 min. The plate was washed 3 times with FACS buffer by centrifugation at 300 g and tested on a BD FACSCantoII flow cytometer for geometric mean fluorescence intensity (MFI). The binding EC₅₀ value of the antibody to the stably transfected TROP-2-expressing cells was calculated.

[3] = biological target: T4, hTROP-2 protein (huTROP-2 protein, His27-Thr274, accession No. NP_002344.2) (human, UniProt P09758 27-274); assay: SPR (Biacore T200), antibody captured on chip, hTROP-2 as analyte, 1:1 Langmuir fit
T4 construct: No tag is stated for this construct; also called antigen hTROP-2
T4 sequence: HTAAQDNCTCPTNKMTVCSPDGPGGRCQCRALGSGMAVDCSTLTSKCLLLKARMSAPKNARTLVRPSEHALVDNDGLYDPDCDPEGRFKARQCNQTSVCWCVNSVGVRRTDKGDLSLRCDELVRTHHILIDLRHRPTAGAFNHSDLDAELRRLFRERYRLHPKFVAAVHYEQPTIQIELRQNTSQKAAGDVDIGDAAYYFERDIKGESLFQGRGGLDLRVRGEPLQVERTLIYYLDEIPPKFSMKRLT
Description: The affinity of antibody for TROP-2 was detected in a form of a capture antibody. […] After dissociation was completed for each assay cycle, the chip was washed clean and regenerated with regeneration buffer, Glycine1.5 (Cat. #BR100354, GE) or 3 M MgCl₂ (from Human antibody capture kit, Cat. #BR100839, GE). After the assay was completed, the data were fitted with (1:1) Langmuir model using GE Biacore T200 Evaluation version 3.0 to obtain affinity values.

[4] = biological target: T4, hTROP-2 protein (huTROP-2 protein, …); assay: ELISA, plate coated with hTROP-2 protein at 1 ug/mL, anti-human IgG detection, OD450
Method: as §1, with “EC₅₀” for “EC50”

[5] = biological target: T3, human TROP-2 on stably transfected …; assay: flow cytometry (geometric mean fluorescence) on stably transfected TROP-2-expressing CHOK1 cells, Alexa Fluor 488 anti-human IgG detection
Method: as §2

[6] = biological target: T2, TROP-2 expressed on tumor cell lines …; assay: cell-based or functional assay; remark: listed apart in the source

Molecule: hRS7: control anti-TROP-2 antibody, heavy chain SEQ ID NO: 15, light chain SEQ ID NO: 16, constructed with reference to WO03074566 [reference compound]
- Emax (OD value) (hTROP-2): 1.37 OD value
- Emax (TROP-2): 98.5%

B1: ADC-4 (TINA-58, n=3.99) (antibody, human IgG1, kappa, V domains shown)
VH: QVQLVQSGAEVKKPGASVKVSCKASGYTFTTAGMQWVRQAPGQGLEWMGWINTHSGVPKYAEDFKGRVTISADTSTSTAYLQLSSLKSEDTAVYYCARSGFGSSYWYFDVWGQGTLVTVSS
VL: DIQMTQSPSSLSASVGDRVTITCKASQDVSTAVAWYQQKPGKAPKLLIYSASYRYTGVPSRFSGSGSGTDFTLTISSLQPEDFAVYYCQQHYITPLTFGQGTKLEIKR
modifications: compound 58 coupled to cysteine thiols after TCEP reduction; positions not given; compound 58 (linker-drug) coupled to cysteine thiols after TCEP reduction; mean n=3.99 per antibody, positions not given
- EC50 (nM), killing of Colo205 cells [1]: 59.8 nM
- EC50 (nM), killing of DMS53 cells [1]: 75.6 nM
- EC50 (nM), killing of FaDu cells (CTG, 6 days) [1]: 0.53 nM
- EC50 (nM), killing of HCC827 cells [1]: 0.27 nM
- Emax (%), killing of Colo205 cells [1]: 99.7%
- Emax (%), killing of DMS53 cells [1]: 89.8%
- Emax (%), killing of FaDu cells [1]: 101%
- Emax (%), killing of HCC827 cells [1]: 88.2%
- Emax (%), killing of SK-OV-3 cells [1]: 49.1%

B2: PD3 anti-TROP-2 antibody (antibody, human IgG1, kappa, V domains shown)
VH: EVQLVQSGSELKKPGASVKVSCKASGYTFTNYGMNWVKQAPGQGLKWMGWINTYTGEPTYTQDFKGRFAFSLDTSVSTAYLQISSLKAEDTAVYYCARGGFGSSYWYFDVWGQGTLVTVSS
VL: DIQLTQSPSSLSASVGDRVSITCKASQDVSIAVAWYQQKPGKAPKLLIYSASYRYTGVPDRFSGSGSGTDFTLTISSLQPEDFAVYYCQQHYITPLTFGAGTKVEIKR
notes: CDR-mutated variant designed on the hRS7 template; also called PD3 antibody
- EC50 [2]: 1.57 nM
- Emax (MFI) [2]: 16700 MFI
- Kd [3]: 0.686 nM
- EC50 [4]: 13.6 nM
- Emax (OD value) [4]: 1.4 OD
- EC50 (read off the curve) [5]: ~2 µg/mL

B3: TINA anti-TROP-2 antibody (control molecule) (antibody, human IgG1, kappa, V domains shown)
VH: QVQLVQSGAEVKKPGASVKVSCKASGYTFTTAGMQWVRQAPGQGLEWMGWINTHSGVPKYAEDFKGRVTISADTSTSTAYLQLSSLKSEDTAVYYCARSGFGSSYWYFDVWGQGTLVTVSS
VL: DIQMTQSPSSLSASVGDRVTITCKASQDVSTAVAWYQQKPGKAPKLLIYSASYRYTGVPSRFSGSGSGTDFTLTISSLQPEDFAVYYCQQHYITPLTFGQGTKLEIKR
- EC50 [2]: 3.55 nM
- Emax (MFI) [2]: 14200 MFI
- Kd [3]: 21.5 nM
- EC50 [4]: 16.1 nM
- Emax (OD value) [4]: 1.39 OD
- EC50 (read off the curve) [5]: ~4 µg/mL

B4: ADC-7 (hRS7-9-A, n=3.72) (antibody, human IgG1, kappa, V domains shown)
VH: QVQLQQSGSELKKPGASVKVSCKASGYTFTNYGMNWVKQAPGQGLKWMGWINTYTGEPTYTDDFKGRFAFSLDTSVSTAYLQISSLKADDTAVYFCARGGFGSSYWYFDVWGQGSLVTVSS
VL: DIQLTQSPSSLSASVGDRVSITCKASQDVSIAVAWYQQKPGKAPKLLIYSASYRYTGVPDRFSGSGSGTDFTLTISSLQPEDFAVYYCQQHYITPLTFGAGTKVEIKR
modifications: compound 9-A coupled to cysteine thiols after TCEP reduction; positions not given; compound 9-A coupled to cysteine thiols after TCEP reduction; mean n=3.72 per antibody, positions not given
- EC50 (nM), killing of Colo205 cells [1]: 52.8 nM
- EC50 (nM), killing of DMS53 cells [1]: 72.9 nM
- EC50 (nM), killing of FaDu cells (CTG, 6 days) [1]: 0.31 nM
- EC50 (nM), killing of HCC827 cells [1]: 0.18 nM
- Emax (%), killing of Colo205 cells [1]: 99.5%
- Emax (%), killing of DMS53 cells [1]: 88.7%
- Emax (%), killing of FaDu cells [1]: 101%
- Emax (%), killing of HCC827 cells [1]: 89.3%
- Emax (%), killing of SK-OV-3 cells [1]: 66.1%

B5: ADC-5 (PD3-58, n=3.88) (antibody, human IgG1, kappa, V domains shown)
VH: EVQLVQSGSELKKPGASVKVSCKASGYTFTNYGMNWVKQAPGQGLKWMGWINTYTGEPTYTQDFKGRFAFSLDTSVSTAYLQISSLKAEDTAVYYCARGGFGSSYWYFDVWGQGTLVTVSS
VL: DIQLTQSPSSLSASVGDRVSITCKASQDVSIAVAWYQQKPGKAPKLLIYSASYRYTGVPDRFSGSGSGTDFTLTISSLQPEDFAVYYCQQHYITPLTFGAGTKVEIKR
modifications: compound 58 coupled to cysteine thiols after TCEP reduction; positions not given; compound 58 coupled to cysteine thiols after TCEP reduction; mean n=3.88 per antibody, positions not given
- EC50 (nM), killing of Colo205 cells (second parallel assay) [6]: 25.6 nM
- EC50 (nM), killing of DMS53 cells (second parallel assay) [6]: 25.7 nM
- EC50 (nM), killing of FaDu cells (second parallel assay) [6]: 0.14 nM
- EC50 (nM), killing of HCC827 cells (second parallel assay) [6]: 0.13 nM

B6: hRS7 anti-TROP-2 antibody (control molecule) (antibody, human IgG1, kappa, V domains shown)
VH: QVQLQQSGSELKKPGASVKVSCKASGYTFTNYGMNWVKQAPGQGLKWMGWINTYTGEPTYTDDFKGRFAFSLDTSVSTAYLQISSLKADDTAVYFCARGGFGSSYWYFDVWGQGSLVTVSS
VL: DIQLTQSPSSLSASVGDRVSITCKASQDVSIAVAWYQQKPGKAPKLLIYSASYRYTGVPDRFSGSGSGTDFTLTISSLQPEDFAVYYCQQHYITPLTFGAGTKVEIKR
- EC50 [2]: 2.31 nM
- Emax (MFI) [2]: 16000 MFI
- Kd [3]: 0.987 nM
- EC50 [4]: 18.3 nM
- Emax (OD value) [4]: 1.37 OD
- EC50 (read off the curve) [5]: ~3 µg/mL

From patent publication US20230101735A1, “ANTI-TROP-2 ANTIDODY-EXATECAN ANALOG CONJUGATE AND MEDICAL USE THEREOF” (JIANGSU HENGRUI MEDICINE CO., LTD., priority 2020, published 2023)
